Results: publication PMC8093152, “Biosynthesis of the Tricyclic Aromatic Type II Polyketide Rishirilide: New Potential Third Ring Oxygenation after Three Cyclization Steps” (Molecular Biotechnology, 2021)

B1: RslO4 monooxygenase, C-terminal His-tag recombinant protein (enzyme, Streptomyces bottropensis Gö C4/4)
chain: MAVVFVNKLTLIGDAEEFESRYEAVGAFMETQPGLVRYSLVRSTKDDSVYFNIAEWDDEDTFRKALAEPEFRRRLDALTGLIKGEPHLSLPVRQGRAAQV
notes: RslO4, monooxygenase of the rishirilide (Rsl) gene cluster of Streptomyces bottropensis Gö C4/4; gene amplified from cosmid 4 and cloned between NdeI and XhoI of pET21a(+); rslO4 gene printed as 300 bps; predicted mass of the tagged protein 12.17 kDa; also called monooxygenase RslO4; cofactor-independent monooxygenase RslO4; source: E. coli BL21 (DE3) Star, pET21a(+), purified (Ni-NTA HisTrap FF, …)
B2: RslO1 monooxygenase, C-terminal His-tag recombinant protein (enzyme, Streptomyces bottropensis Gö C4/4)
chain: MKFGINLFPTVGPAEKSAGQHFEESLRLAELADELGFHHVKTVEHYFHEYGGYSPDPVTFLAAAAARTRRVRLVTGAVLPVFTHPLKLAGKLAMLDNISQGRLDVGFGRAFLPDEFTAFEISMDESRARFDEGVEAVRRLWAEEDVVWEGTFHRFGPVTMLPRTWQRPHPRILVATAKTPASAEAAARAGHGVMLVPSINPREQVQKTLSLYRDAASAAGFKPTEEDIHMSYNCYLAEDGQEARQKGGQASERANRALASAVSAWRETRSADYPGYEKIVEKAGRGDFDRAVAERKALVGTPDEVRAAIDDIRGWFGDFTISLQVISGAMPFEESARTMRLFAEHLLPHYAAND
notes: RslO1, FMN-dependent luciferase-like monooxygenase of the rishirilide (Rsl) gene cluster of Streptomyces bottropensis Gö C4/4; gene amplified from cosmid 4 and cloned between NdeI and XhoI of pET21a(+); predicted mass of the tagged protein 40.04 kDa; also called monooxygenase RslO1; FMN-dependent luciferase-like monooxygenase RslO1; source: E. coli BL21 (DE3) Star, pET21a(+), purified (Ni-NTA …)

How the values were obtained:
[1] = biological target: the molecule itself; assay: crystal structure; apo RslO4, sitting drop vapor diffusion at 20 °C, 6% ethanol, 0.1 M ammonium acetate pH 5.5, 1.5 M phosphate pH 7.0; space group P3(2)21, two monomers in the asymmetric unit; 1.8 Å
[2] = biological target: the molecule itself; assay: crystal structure; apo RslO1, sitting drop vapor diffusion at 20 °C, 0.1 M HEPES pH 7.5, 36% polyethylene glycol 600 (seeded); space group P2(1)2(1)2(1); 1.60 Å

| Protein | stoichiometry N [1] | stoichiometry N [2] |
| --- | --- | --- |
| B1 | 2 | – |
| B2 | – | 2 |
